The values below come from paper PMC9765176, “Infant Antibody Repertoires during the First Two Years of Influenza Vaccination” (mBio, 2022).

Assay [1] has as its target T1, recombinant hemagglutinin B/Brisbane/2008, head construct (trimeric, head-only) (influenza B virus B/Brisbane/60/2008, UniProt C0LT35, strain).
T1 construct: also called rHA head
Nature of the assay: multiplex bead assay (Luminex). The following applies: one partner purified.

Assay [2] concerns the target T2, recombinant hemagglutinin B/Brisbane/2008, full-length construct (full-length soluble ectodomain, FLsE) (influenza B virus B/Brisbane/60/2008, UniProt C0LT35, strain).
T2 construct: also called B/Brisbane/60/2008; B/Vic
Nature of the assay: multiplex bead assay (Luminex). The following applies: one partner purified.

B1: year 2 postvaccination Bmem BCR of infant 1, clonally related to the most abundant IBV HA-specific plasma IgG clonotype (antibody, V domains shown)
VH: EVQLVESGGGLVQPGGSLRLSCAASGFTFRSYEMNWVRQAPGKGLEWISYISGSGGTIYYADSVKGRFTISRDNARNSLYLQMNSLRAEDTAVYYCARDLRGIGDYWGQGTLVTVSS
VL: SSELTQDPAVSVALGQTVRITCQGDSLRSYYASWYQQKPGQAPVLVIYGESNRPSGIPDRFSGSSSGNTASLTITGAQAEDEADYYCNSRDNSGNLYVFGSGTKVTVL
On to B1, for which the binding result in assay [1] is listed as “no binding”; in assay [2], “binds”.
